Data on 20 sequences can be found in the DeepSol protein solubility set.

A short description of the series: soluble on expression in E. coli; label from the status in PepcDB or PDB records.
With “MSLRSSFRVGVTEDRNKKCRRTMEDTHAYLYNFLGNPVPSAQNDDSDQSSHPSDASPKTGELTPIVETDNGYFAIFDGHAGTFAAQWCGKKLHLILEDVMRKNINAPVPELLDQTFTSVDQQLEKLPVKNSGCTAVVALLRWEDRIPTPSSVTGSSAIGPAAVAATKAGADSKADDTPTQEAAATPVPAIPPKLREKAIRQRVLYTANVGDARVILCRNGKALRLSYDHKGSDENEGRRIANAGGLIMNNRVNGVLAVTRALGDAYIKDLVTGHPYTTETVIQPDLDEFIILASDGLWDVCSDQEAVDLIRNVSDAQEASKILVDHALARFSTDNLSCMVIRLYADREGHHHHHH”, the “soluble on expression in E. coli” value is given as “soluble”.
“IGIVNDMPLAVEALRRALAFEPQHQIVWVASNGAEAVTQCAADTPDVVLMDLLMPVMDGVEATRRIMAESPCAIVIVTVDIEQNVHRVFEAMGYGALDAVNTPALGIGNPQTAAAPLLRKIQNVGWLIGQRDNRGKVQVVPPKAGGARQRLVAIGASAGGPASLAVLLKQLPASFNAAVVLVQHVDEVFAAGMAEWLASESKLPVRLARDGEPPIPGQILLAGTNNHIRLLRNGSLVYTAEPRSFVYRPSIDVFFESVANYWRGDAVGVLLTGMGRDGAQGLKQMRERGFLTIAQDQASCAVYGMPKAAAAIDAAVQILSLEKIA”: the “soluble on expression in E. coli” value was “not soluble”.
As to “KNTPVRMRGTLQDITERTKIEDSLLLSEERYRSFIQNFTGIAFQQDEDLNLEFVKGNVEEITGYSEEELMSKKRWRKIVEKQDLPLFLKKEREIKNARSPYSGKLSYRIRCKDGKIKWVHEVYQKIPGKN”, the “soluble on expression in E. coli” value is on record as “not soluble”.
As for “MSLNQLTDHVTLRHGATLNNRIVMSPMQTHSGLKGGFASDDTIQYYSARSRAAGMLITEFHYVSENGGPAYVPGYPEQLGAYSDAHLEGLRKTVQALKKDGNKAILQIHHAGRAAVGRHVNGLDVVAPSAIDFSFLDYPVRELTITEIDDIILDFGKATKRAIDAGFDGVEIHGANHYLIQQFFSKLSNLRTDKWGGSLNKRMAFPLAVVKEVKAIVDEYAPKGFIIGYRISPEELHGKNVGYDYTEALTLISEVIKYELDYIHLSLWAGYNSKPENSEKSYAELFKEILDDKTKLLIVGGIFGEDTATDAIENYADLIAVARGTLIDPNFAKKVTEGKGDTILHKISPETVEYSHLTPGLLEAFSREDSLGLPPLPGGETIRHLHTGKYDEGHHHHHH”, the entry is “soluble”; as for “MGSDKIHHHHHHMNVPKAGKVICAGLGPGDPELMSVKSWRALQGATHVAYFRKAGRAGQARAIVEGLLPAGVTEYPMEYPVTTEIHFSDPEYNRQLAAFYDQWADTLAEIAATQTVVVLCEGDPFLYGSFMHLHTRLEGRAEVEIIPGITGMSGCWTATGQPITWGDDVLTVAMATLSEDELTQRIRQTDALVVMKIGRNLPKLRRALEAAGRLQDAWLVERGTMPAQTVQKLTDVDGEVPYFSIVILHGEGRRP”, “not soluble”.
As for “MKKIPLGTTDITLSRMGLGTWAIGGGPAWNGDLDRQICIDTILEAHRCGINLIDTAPGYNFGNSEVIVGQALKKLPREQVVVETKCGIVWERKGSLFNKVGDRQLYKNLSPESIREEVAASLQRLGIDYIDIYMTHWQSVPPFFTPIAETVAVLNELKSEGKIRAIGAANVDADHIREYLQYGELDIIQAKYSILDRAMENELLPLCRDNGIVVQVYSPLEQGLLTGTITRDYVPGGARANKVWFQRENMLKVIDMLEQWQPLCARYQCTIPTLALAWILKQSDLISILSGATAPEQVRENVAALNINLSDADATLMREMAEALER”, the entry is “soluble”; as for “MSASAFNFAFRRFWNSETGPKTVHFWAPTLKWGLVFAGLNDIKRPVEKVSGAQNLSLLATALIWTRWSFVIKPKNYLLASVNFFLGCTAGYHLTRIANFRIRNGDSFKQVIHYIIKGETPAAVAAKQTASTSMNKGVIGTNPPITH”, “soluble”.
Then “WLRDVLDSEAFRHTQATLPMALGKDISGQPIVVDMAKMPHLLVAGQTGGGKSVGINTMILSLLFKLTPEQVRFIMIDPKVVELSVYNDIPHLLTPVVTDMKKAANALRWAVGEMERRYLLISHLQVRNIEGYNDKIDQASAMNFPIPDPTWRPADSIGQLPPPLTKLSYIVLIVDEFADLIMSAGKEVEEYIMRIAQKARAVGIHLILATQRPST”, with “not soluble”; and “MSLKIDFLTLFPEMFEGVLGSSILQKAQEKDAVQFQVVNFREYSDNKHNTVDDYPYGGGAGMVLKPQPVFDAVEDLTSKAAAAPRIILVCPQGERFTQKKAEQLAKEEHLLFICGHYEGYDERIREHLVTDEISIGDFVLTGGELPAMMIADSVVRLLPGVLGKEASHIEDSFSTGLLEHPHYTRPADYKGLKVPETLLSGNHAKIEEWRNKESIRRTYLRRPDLLKDYPLTEQQRKWISEWEKEEGGSHHHHHH”, with “soluble”; and “MAKNHYDILRRHIRSEDLLETPEFGSGSRIVEEYWIQEPFTKAIIVENEDEFRNVYYALEPTVSSEEAEVISALYDDLKKILVLQDVSVDLEERAEVLVRAIEKLSKEYAVSFTDNFYSRMLYYLFRDFFGYGLIDPLMEDTNVEDISCDGYNIPIFIYHQKYGNVETNIVLDQEKLDRMVLRLTQRSGKHISIANPIVDATLPDGSRLQATFGTEVTPRGSSFTIRKFTIEPLTPIDLIEKGTVPSGVLAYLWLAIEHKFSAIVVGETASGKTTTLNAIMMFIPPDAKVVSIEDTREIKLYHENWIAEVTRTGMGEGEIDMYDLLRAALRQRPDYIIVGEVRGREAQTLFQAMSTGHASYSTLHAGDINQMVYRLESEPLKVPRSMLQFLDIALVQTMWVRGNTRLRRTKEVNEILGIDPVDKNLLVNQFVKWDPKEDKHIEVSMPKKLEKMADFLGVSVQEVYDEMLSRKRYLELMLKRGIRNYKEVTRYIHAYYRNPELAMTKMEEGL”, with “soluble”.
For the sequence “MSLRILYLDPFSGISGDMFLGLLVDLGVDPEKIKSRLEKLNVEFDLVVKKVNKKGVTATKVDVVFPRKEHHEDHIVSDHDHHHHHGRHLSEIVEVLSRLEDPLKEKAIRMFEALAEAESKIHGLSKEKVHFHEVGAMDAVIEIAGAVVGLELLEVEKVFCGTVNTGSGFVMTEHGRYPVPAPATAELLKGIPIYMDQKVRAELVTPTGAVILKILVDEFRTPILRVEKVGYGAGTMDLEIPNVLRGYLGYIEPSERTGDVLIETNVDDMNPQLFGHLMERLFEAGAKDVFFTPIYMKKNRPAVKVSVLCHESKKDEILKLLFKESTSIGARVFYPEKVEATRTLKTVKTEYGEIPVKIASFDSEIVNISPEYEACKKVAQEKGIPLKEVYRAVYKSVSEVRNDVEGHHHHHH”, the “soluble on expression in E. coli” value is “soluble”.
For the sequence “MSLDFWLYKQAQQNGHHIAITDGQESYTYQNLYCEASLLAKRLKAYQQSRVGLYIDNSIQSIILIHACWLANIEIAMINTRLTPNEMTNQMRSIDVQLIFCTLPLELRGFQIVSLDDIEFAGRDITTNGLLDNTMGIQYDTSNETVVPKESPSNILNTSFNLDDIASIMFTSGTTGPQKAVPQTFRNHYASAIGCKESLGFDRDTNWLSVLPIYHISGLSVLLRAVIEGFTVRIVDKFNAEQILTMIKNERITHISLVPQTLNWLMQQGLHEPYNLQKILLGGAKLSATMIETALQYNLPIYNSFGMTETCSQFLTATPEMLHARPDTVGMPSANVDVKIKNPNKEGHGELMIKGANVMNGYLYPTDLTGTFENGYFNTGDIAEIDHEGYVMIYDRRKDLIISGGENIYPYQIETVAKQFPGISDAVCVGHPDDTWGQVPKLYFVSESDISKAQLIAYLSKHLAKYKVPKHFEKVDTLPYTSTGKLQRNKLYREGHHHHHH”, the “soluble on expression in E. coli” value is on record as “soluble”.
As for “QETEDPACCSPIVPRNEWKALASECAQHLSLPLRYVVVSHTAGSSCNTPASCQQQARNVQHYHMKTLGWCDVGYNFLIGEDGLVYEGRGWNFTGAHSGHLWNPMSIGISFMGNYMDRVPTPQAIRAAQGLLACGVAQGALRSNYVLKGHRDVQRTLSPGNQLYHLIQNWPHYRSP”, the entry is “soluble”; as for “MGHHHHHHGGHMSLNSTSSPTIAVTAATGKLGQLVVSSLLERGVPADHIVAIVRNPAKAQGLFAPGVQIRQADYNSPEGWDRALAGVQRLLLISSSDLNDRADQHRTVIEAASAAGVELLAYTSLLKADTARMSLAADHQATEKLLTESGVPFVLLRNGWYLENYDLAQALQTGSVLGAAGTGRISAASRKDLAEAAAAALTRDGQAGKVYELAGDEAFSLSELAAELSKQSGKDVQYRNFAPEDYQRTLEGFGLPAPVAQMLVSSDEGVARGELELPNSDLRELIGRPSTSLKEAVASQLAEGGS”, “soluble”.
Then “MGSDKIHHHHHHMKIDTLGVQAFVAIADGGSFRQAADTLHVTQTAITQRLRKLESFLGVALVERTTRRTTLTEIGRRFLPQARRLLNELSDALTEIRETGLSQRGDVTIACVPTVGVQYLPRILRAFSGHRPHDRVKILDHASASVLQAVLRREAEFGISIAGDQHPELVSVPLTHDPYVLVCRDDHPLAKRRRIRWAALQPHPLIFAGEVSGNRGLLDGALKTSGVSLHSFYEVQRSSTALGLVAEGLGAAVVPKLAVQKNAYPMIRTIELVEPSVSRTLVLVKRKAAQLSPAAQALYDMIVERATPGR”, with “not soluble”.
Then “MNNYDDLPCSIYFKKPTVQEFVDQPRVFEDSEVPAFQEVLQLPQERTKPPVPSTQPIVAAVEVAKKKSCLSAPKPRKEPPSHPALRQKTVAFGKTVNVSQTVEGTSRNSKKVLASTMSAQNTTTTEEQAAENWRDAMKTELQTIRTEIQEETARRQEELNAQNLVKMQELMSNFFQKITIPKQQAIEPVEKDKENFHESPRQSRQQKPASKIASAREVIKRDGVIPPEALTIIEQRLRSDPMFRQQIDNVLADAECDANRAAYSPPPPMSEVRYGSGVNPALMRETLTVERSIRYDNGLASIDSRQWTNERRDNRAPDSYRTYEPDQPCHSLYQKGQSISYYPSEAAGKTTARNNRTGYYVEDSSDHEEDVVVNKRGQNYHEQAVPETPAERERRIREKYARRK”, with “not soluble”; and “MCMNTQSPPSPHDPHGAAALPFRLWTAEERRASLDTALREWRDGEDVWVYGYGSLIWRPDFDFVERRLATLHGHHRALLWSRVNRGTPECPGLVFGLDRGGSCRGVVYRLAGRQVPDYFPALWDREMSTGAYLPRWLRCATEHGPVNALVFIMNRANPAYIRALPEPELLAIVRRASGRYGPCTEYVVQTAQALRQAGIRDARLEQIARQLEAEVHPLGVLEHHHHHH”, with “soluble”.
In the case of “MNTVCTHCQAINRIPDDRLQDAAKCGRCGHELFDGEVINATGETLDKLLKDDLPVVIDFWAPWCGPCRNFAPIFEDVAEERSGKVRFVKVNTEAERELSARFGIRSIPTIMIFKHGQVVDMLNGAVPKAPFDSWLNEAL”, the “soluble on expression in E. coli” value is on record as “not soluble”.
Turning to “MKRYISIKGIGTYLPKRKVDSLEIDQMLDVPEGWTLKKAGVKTRYFVDGETSSYMGAEAAKKAVEDAKLTWDDIDCIICGSGTIQQAIPSTASLIQEQLGLQHSGIPCFDINSTCLSFITALDTISYAIECGRYKNVVIISSEISSVGLNWGQNESSILFGDGAAAVVITKGDHSSSIIASHMETYSSGAHLSEIRGGGTMIHPREYSEERKEDFLFDMNGRAIFKLSSKYLMKFIDKLLMDTGYSLADIDLIVPHQASGPAMRLIRKKLGVDEERFMTIFEDYGNMISASIPVALFEAIKQKKVQRGNKILLLGTSAGLSIGGILLEY”, the “soluble on expression in E. coli” value was “not soluble”.
As for “MNEDNSQNSEGPSRKSFFERLSQLFQGEPKDRQELVDVIRDSEVNDLIDHDTRDMLEGVMEIAEMRVRDIMIPRSQMVTIDRTHNLDALVAIMTDAQHSRYPVISEDKDHVEGILLAKDLLKYLGSNCAPFNIQEVIRPAVVVPESKRVDRLLKEFREERYHMAIVVDEFGGVSGLVTIEDILEEIVGDIEDEFDDEEQKDIRQLSKHTFSVKALTTIEDFNHTFGTKFSDEEVDTVGGLVMTAFGHLPARGEVVDIAGYNFKVTAADSRRVVALQVTVPDLEALSHVAEE”, the entry is “not soluble”.
